Our source for the luciferase reporter activation over basal (two-hybrid) values is paper PMC3163069.

Where two headings read alike, the source gives them in different places.

Experiment [1] has as its target Id (pBIND-Id, fusion with the DNA-binding domain of yeast gal4). The experiment is described as follows: two-hybrid.
Experiment [2] has the same target. Description: two-hybrid. The source holds these as a separate data set.

As to “MyoD (pACT-MyoD, fusion with the VP16 transactivation domain of herpes simplex virus) (natural protein)”, the luciferase reporter activation over basal (two-hybrid) in experiment [1] worked out at 70 fold; in experiment [2], 10 fold.
